AmyQ secretion efficiency data for 113 sequences are collected here from the supplement of paper PMC9942255.

This data set has as its system Bacillus subtilis DB104 (SP-AmyQ fusion secretion). The experiment in a line: AmyQ secretion efficiency, weighted average sort bin (1 = best secretion, 10 = worst) (bin number (weighted average, 1-10)); higher = lower secretion efficiency. The method in brief:
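Occupied alginate beads were sorted by large-particle flow cytometry into 10 equally populated bins according to green/red fluorescence ratio. Each bead (~65 nL) held fluorescein-starch and about 0.3 cells of a B. subtilis DB104 library expressing mature AmyQ fused to designed signal peptides from the amyE locus, and beads were grown about 13 h at room temperature and stained with nile red before sorting. Bin amplicons were Illumina-sequenced, and the secretion score is the read-frequency-weighted average bin number, normalised to beads per bin, excluding low-abundance sequences.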

Values joined by “and” are separate entries in the source; they are usually repeats but may differ in a detail not shown here. Equal entries are not always repeated.

In the case of MKKLLAAGIIGLSIASPSFAAEK, the AmyQ secretion efficiency worked out at 4.78. In the case of MKKLLALLAVVAFAFTDSSKAKAAEA, the AmyQ secretion efficiency was found to be 2.03.

MKKLLSAASLAFFAMSGSAQAAAY showed an AmyQ secretion efficiency of 2.96.

In the case of MKKLLSTAAGLLLSLTATSVSAHYV, the AmyQ secretion efficiency turned out to be 4.36. For MKKLRKKKIIGLLTVSIASPSFAAEK, the AmyQ secretion efficiency stood at 7.35. The figure for MKKLRKKKKKGLLTVSIASPSFAAEK is 7.52.

MKKLSLGVASAALGLALVGGGTWAAFN came in with an AmyQ secretion efficiency of 6. MKKLSVAVAASFMSLSISLPGVQAAEG had an AmyQ secretion efficiency of 1.57. The figure for MKKLTLAFLVFLSVVLVTTVFLVKQQESVAQAKQL is 3.11; for MKKLVLCVSILAVILKRKRKKALTQLS it is 6.12. The figure for MKKLVLCVSILAVILRKKALTQLS is 7.41.

On to MKKLVLCVSILAVILSGVALTDED, for which the AmyQ secretion efficiency turned out to be 6.4. Turning to MKKLVLCVSILAVILSGVALTQLS, the AmyQ secretion efficiency is 5.95 and 6.59 and 6.66. In turn, MKKLVLCVSILAVILSGVALVQLS displayed an AmyQ secretion efficiency of 5.7. MKKLVLCVSILAVILSGVALYQLS: the AmyQ secretion efficiency amounted to 4.11. The figure for MKKLVLCVSILAVILSGVGLTQLS is 5.94. As to MKKLVLCVSILAVILSGVLLTQLS, the AmyQ secretion efficiency came out at 5.53.

Sequence MKKLVLCVSILAVILSGVMLTQLS showed an AmyQ secretion efficiency of 6.44. In turn, MKKLVLCVSILAVILSGVQLTQLS showed an AmyQ secretion efficiency of 5.61. The figure for MKKLVLCVSILAVILSGVTVALTQLS is 3.8; for MKKLVLCVSILAVILSGVVLTQLS it is 5.78; for MKKLVLCVSILAVILSGVWLTQLS it is 5.87. In the case of MKKLVLCVSILAVILSGVYLTQLS it was 5.92; in that of MKKMKKSGKRFLLALTIHVGEASAVIV, 6.51. Regarding MKKMLGKLLITAGILVFFAVVVKDVFAAGL, the AmyQ secretion efficiency was found to be 7.15. In the case of MKKMLGKLLITAGILVFFAVVVKDVFSAGL it was 3.11; in that of MKKMLGKSGKQTTTGVFFAVVVKDVFAAGL, 6.37; in that of MKKMLGKSRYGAGILVFFAVVVKDVFAAGL, 4.68.

In turn, MKKMLMLAFTFLLALTIHVGEASAVRK registered an AmyQ secretion efficiency of 2.01. The sequence MKKMNFSSNSIIVMLATALFLGLTPAGANAADL gave an AmyQ secretion efficiency of 4.32.

In the case of “MKKMSNSTNSMSVLMAFIICLSLILSVLAAPPSGAKAESV”, the AmyQ secretion efficiency came to 1.73. The figure for MKKQIITATTAVVGAASAQSI is 7.59; for MKKQIITATTAVVLGSTGAASAQSI it is 4.95; for MKKQIITATTAVVLGSTLFAAASSTGAASAQSI it is 3.24. The figure for MKKQIITATTAVVLGSTLFADDEASAQSI is 2.17. As for MKKQIITATTAVVLGSTLFAEDDDDEASAQSI, the AmyQ secretion efficiency was determined as 3.86. In the case of MKKQIITATTAVVLGSTLFAGAAAVASAQSI it was 3.9. The figure for MKKQIITATTAVVLGSTLFAGAASAEEE is 2.04; for MKKQIITATTAVVLGSTLFAGAASAKRK it is 2.25. The figure for MKKQIITATTAVVLGSTLFAGAASAQKR is 2.23; for MKKQIITATTAVVLGSTLFAGAASAQSD it is 2.54; for MKKQIITATTAVVLGSTLFAGAASGQSI it is 2.03. In turn, MKKQIITATTAVVLGSTLFAGAASIQSI gave an AmyQ secretion efficiency of 5.61. The figure for MKKQIITATTAVVLGSTLFAGAASMQSI is 3.83; for MKKQIITATTAVVLGSTLFAGAASSQSI it is 1.97. The figure for MKKQIITATTAVVLGSTLFAGAASTQSI is 2.06; for MKKQIITATTAVVLGSTLFAGAASYQSI it is 6.33. The figure for MKKQIITATTAVVLGSTLFAGACSAQSI is 2.49; for MKKQIITATTAVVLGSTLFAGADSAQSI it is 3.56. Sequence MKKQIITATTAVVLGSTLFAGAGSAQSI displayed an AmyQ secretion efficiency of 1.62. As to MKKQIITATTAVVLGSTLFAGAKSAQSI, the AmyQ secretion efficiency came out at 3.92.

The sequence MKKQIITATTAVVLGSTLFAGALSAQSI returned an AmyQ secretion efficiency of 2.54. Take MKKQIITATTAVVLGSTLFAGAMSAQSI: the AmyQ secretion efficiency was determined as 1.54.

The sequence MKKQIITATTAVVLGSTLFAGANSAQSI came in with an AmyQ secretion efficiency of 3.08.

Regarding MKKQIITATTAVVLGSTLFAGAPPATASVPVVGASAQSI, the AmyQ secretion efficiency was 2.17. For MKKQIITATTAVVLGSTLFAGAPSAQSI, the AmyQ secretion efficiency was found to be 3.52.

Regarding MKKQIITATTAVVLGSTLFAGAQSAQSI, the AmyQ secretion efficiency stood at 4.07.

Turning to MKKQIITATTAVVLGSTLFAGARSAQSI, the AmyQ secretion efficiency came out at 3.67. In the case of MKKQIITATTAVVLGSTLFAGASSAQSI it was 2.25; in that of MKKQIITATTAVVLGSTLFAGATGFAFAPASAQSI, 3.63; in that of MKKQIITATTAVVLGSTLFAGATSAQSI, 1.92. In the case of MKKQIITATTAVVLGSTLFAGAVSAQSI it was 1.69. The figure for MKKQIITATTAVVLGSTLFAGAYSAQSI is 5.58. MKKQIITATTAVVLGSTLFAKKASAQSI registered an AmyQ secretion efficiency of 6.18. As to MKKQIITATTAVVLGSTLFAKKRASAQSI, the AmyQ secretion efficiency was determined as 7.26.

In turn, MKKQIITATTAVVLGSTLFARKKRKKASAQSI registered an AmyQ secretion efficiency of 7.27. Turning to MKKQIITATTAVVLGSTLFASPASAQSI, the AmyQ secretion efficiency is 1.55. The figure for MKKQIITATTAVVLGSTLFAVGAASAQSI is 2.23. In the case of MKKQIKKKKTAVVLGSTLFAGAASAQSI it was 7.3. Take MKKQIKKKRKKVVLGSTLFAGAASAQSI: the AmyQ secretion efficiency amounted to 7.55. Take MKKQKKIAGVLTVAAAAMTAKMYATAKGN: the AmyQ secretion efficiency is 7.17.

MKKQQYGQSKKVVLGSTLFAGAASAQSI registered an AmyQ secretion efficiency of 7.51. MKKQRKIITATTAVVLGSTLFAGAASAQSI displayed an AmyQ secretion efficiency of 1.81.

As to MKKQSMALVILGALGTSYISADSS, the AmyQ secretion efficiency was found to be 5.2. In the case of MKKQSYSATTAVVLGSTLFAGAASAQSI it was 5.86; in that of MKKQTTIINNSTIITATTAVVLGSTLFAGAASAQSI, 3.18; in that of MKKQWIGMLAAAVLLLMVPKVSLADAA, 2.86. In the case of MKKRFFGPIILAFAGAIAIPS it was 9.34. In the case of MKKRFFGPIILAFILFAAIAIPS it was 6.38; in that of MKKRFFGPIILAFILFAGAIAIEE, 6.41; in that of MKKRFFGPIILAFILFAGAIAKKK, 7.24. The sequence MKKRFFGPIILAFILFAGAIDIPS yielded an AmyQ secretion efficiency of 6.03. The figure for MKKRFFGPIILAFILFAGAIEIPS is 5.48.

The sequence MKKRFFGPIILAFILFAGAIHIPS had an AmyQ secretion efficiency of 5.21. The figure for MKKRFFGPIILAFILFAGAIKIPS is 5.25; for MKKRFFGPIILAFILFAGAIVIPS it is 5.76; for MKKRFFGPIILAFILFAGLIAIPS it is 5.16. In the case of MKKRFFGPIILAFILFAGTASAIAIPS it was 5.82. The figure for MKKRFFGPIILAFILFAGVIAIPS is 6.86. Consider MKKRFFGPIILAFILFLFSSLAGAIAIPS, for which the AmyQ secretion efficiency is 6.16. Turning to MKKRFFGPIILAFILFRRRAIAIPS, the AmyQ secretion efficiency was 7.49. Regarding MKKRFFGPIILAFILFTASTAFTAIAGAIAIPS, the AmyQ secretion efficiency is 4.73.

MKKRFRRRKKRAFILFAGAIAIPS yielded an AmyQ secretion efficiency of 6.13. In the case of MKKRFSGQMMTGLLFGLTSPAFAAEK it was 6.38; in that of MKKRFSLIMMFILLFMLMSPAFAAEK, 3.79; in that of MKKRFSLIMMTGLLFGLTEEEAFAAEK, 2.39. For MKKRFSLIMMTGLLFGLTKKRAFAAEK, the AmyQ secretion efficiency amounted to 6.54. In the case of MKKRFSLIMMTGLLFGLTKRKKKKAFAAEK it was 7.34; in that of MKKRFSLIMMTGLLFGLTSPAFAADE, 3.46.

MKKRFSLIMMTGLLFGLTSPAFAAPE: the AmyQ secretion efficiency was found to be 3.06. Consider MKKRFSLIMMTGLLFGLTSPAFAAPK, for which the AmyQ secretion efficiency was determined as 1.77.

For MKKRFSLIMMTGLLFGLTSPAFAASN, the AmyQ secretion efficiency was 2.36. In the case of MKKRFSLIMMTGLLFGLTSPAFARKK it was 7.01; in that of MKKRFSLIMMTGLLFGLTSPDEKAFAAEK, 2.56; in that of MKKRFSLIMMTGLLFGLTSPTFAAEK, 3.56. As for MKKRFSLKKRRGLLFGLTSPAFAAEK, the AmyQ secretion efficiency stood at 8.62. In the case of MKKRFSLRRRKRKLFGLTSPAFAAEK it was 7.37; in that of MKKRINLIGFLVLVPALIMSGITLIEANKK, 7.4. The figure for MKKRITLLALLAVVAFAFTDSSKAKAAEA is 3.06. MKKRITYSFTMMLLALLAVVAFAFTDSSKAKAAEA had an AmyQ secretion efficiency of 1.93. Consider MKKRITYSGSQLLAVVAFAFTDSSKAKAAEA, for which the AmyQ secretion efficiency turned out to be 8.92. In the case of MKKRITYSLLALLAVVAFAFFISSKAKAAEA it was 5.19; in that of MKKRITYSLLALLAVVAFAFFSIAGAKAAEA, 4.27.
